The values that follow come from patent US20180142261A1.

The test addresses mouse CD4 (mouse) (UniProt P06332). Kind of test: flow cytometry, primary C57BL/6 splenocytes ex vivo, siCy5 signal (FIG. 4B). (In general: In flow cytometry, cells or beads pass a laser one at a time.)
Chain of UniProt P06332 (P06332 27-457): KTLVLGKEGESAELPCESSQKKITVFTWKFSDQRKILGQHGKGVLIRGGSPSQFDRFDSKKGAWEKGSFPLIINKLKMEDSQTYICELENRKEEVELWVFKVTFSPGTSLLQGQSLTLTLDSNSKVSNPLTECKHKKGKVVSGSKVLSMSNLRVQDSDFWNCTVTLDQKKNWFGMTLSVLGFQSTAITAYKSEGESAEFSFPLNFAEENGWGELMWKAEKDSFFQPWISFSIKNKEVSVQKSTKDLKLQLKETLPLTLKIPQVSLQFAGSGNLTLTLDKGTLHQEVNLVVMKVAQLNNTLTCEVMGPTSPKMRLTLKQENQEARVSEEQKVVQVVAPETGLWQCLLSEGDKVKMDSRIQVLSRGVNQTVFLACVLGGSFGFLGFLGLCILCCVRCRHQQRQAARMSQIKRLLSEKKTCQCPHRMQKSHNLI

In turn, “isoLNPs: lipid nanoparticles coated with an isotype control mAb (antibody)” displayed a percent of CD4+ cells that bind of 1%.

“tLNPs: lipid nanoparticles (siRNA-encapsulating) conjugated to DTT-reduced anti-mouse CD4 monoclonal antibody (clone YTS.177)” showed a percent of CD4+ cells that bind of 100%.
